Reference: patent US20140087995A1 (published 2014)
Numbered stars: 1 amine (or outer) side, 2 acyl side, 3 side chain; on linkers, the order of the positions; unused ones are H or OH. Bridge positions count the residues as written; N and C are the ends. Side chains are listed from the residue outwards. Ends that are not written are not given here. * marks the point of attachment. C20 diacid = O=C(O)CCCCCCCCCCCCCCCCCCC(=O)*; γGlu = O=C(O)[C@H](CCC(=O)[*:2])N[*:1]; AEEA = NCCOCCOCC(=O)O

T1: human calcitonin receptor (human, UniProt P30988 25-474)
T1 construct: whole, on cells; Membranes of a BHK tk'ts 13 cell line stably transfected with the human calcitonin receptor; also called hCTR; hCT
T1 sequence (looked up): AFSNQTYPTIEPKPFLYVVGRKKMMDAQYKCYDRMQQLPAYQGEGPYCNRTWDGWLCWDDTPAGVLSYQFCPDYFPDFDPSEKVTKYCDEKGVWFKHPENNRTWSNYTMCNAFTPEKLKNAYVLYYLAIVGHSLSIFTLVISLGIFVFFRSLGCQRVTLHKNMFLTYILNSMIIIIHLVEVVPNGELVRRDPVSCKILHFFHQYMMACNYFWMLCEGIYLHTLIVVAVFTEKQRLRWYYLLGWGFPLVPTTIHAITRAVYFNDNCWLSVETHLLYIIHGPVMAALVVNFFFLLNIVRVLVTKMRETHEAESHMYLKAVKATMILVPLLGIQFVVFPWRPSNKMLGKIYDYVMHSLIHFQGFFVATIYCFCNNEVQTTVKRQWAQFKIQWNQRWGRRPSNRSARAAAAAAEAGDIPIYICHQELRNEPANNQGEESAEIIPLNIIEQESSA

T2: rat calcitonin receptor (rat, UniProt P32214 25-516)
T2 construct: whole, on cells; Membranes of BHK tk'ts 13 cells transiently transfected with the rat calcitonin receptor; also called rCTR; rat calcitonin (a) receptor
T2 sequence (looked up): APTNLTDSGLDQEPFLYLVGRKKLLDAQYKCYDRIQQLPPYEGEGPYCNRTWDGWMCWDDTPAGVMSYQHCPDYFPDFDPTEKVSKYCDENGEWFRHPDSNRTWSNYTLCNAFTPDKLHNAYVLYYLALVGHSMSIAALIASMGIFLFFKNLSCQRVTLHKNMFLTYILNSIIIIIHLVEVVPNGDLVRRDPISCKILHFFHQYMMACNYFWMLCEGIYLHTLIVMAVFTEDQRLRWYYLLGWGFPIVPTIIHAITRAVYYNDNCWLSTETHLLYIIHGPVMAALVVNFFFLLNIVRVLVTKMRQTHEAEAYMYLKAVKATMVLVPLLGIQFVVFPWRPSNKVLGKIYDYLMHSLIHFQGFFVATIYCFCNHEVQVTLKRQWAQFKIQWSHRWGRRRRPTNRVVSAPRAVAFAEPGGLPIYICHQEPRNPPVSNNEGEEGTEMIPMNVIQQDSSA

T3: rat amylin receptor (rat calcitonin receptor + rat RAMP 3) (rat, UniProt P32214 25-516; Q9JJ73 23-147)
T3 construct: whole, on cells; Membranes of BHK tk'ts 13 cells transiently transfected with the rat calcitonin receptor and rat RAMP 3; also called rAmylin-R; rat amylin 3(a) receptor
T3 sequence (looked up) 1: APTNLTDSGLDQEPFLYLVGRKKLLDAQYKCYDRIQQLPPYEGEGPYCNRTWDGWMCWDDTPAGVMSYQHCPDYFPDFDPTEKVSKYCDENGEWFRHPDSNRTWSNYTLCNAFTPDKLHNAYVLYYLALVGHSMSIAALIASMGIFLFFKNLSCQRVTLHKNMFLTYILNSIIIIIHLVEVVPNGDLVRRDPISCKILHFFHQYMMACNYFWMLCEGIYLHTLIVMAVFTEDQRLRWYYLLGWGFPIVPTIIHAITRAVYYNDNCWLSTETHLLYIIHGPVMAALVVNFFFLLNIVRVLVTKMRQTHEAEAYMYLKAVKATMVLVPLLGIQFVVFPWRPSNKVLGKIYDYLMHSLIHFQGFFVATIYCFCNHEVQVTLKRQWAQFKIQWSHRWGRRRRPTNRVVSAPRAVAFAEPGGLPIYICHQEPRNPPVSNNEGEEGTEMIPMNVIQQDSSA
T3 sequence (looked up) 2: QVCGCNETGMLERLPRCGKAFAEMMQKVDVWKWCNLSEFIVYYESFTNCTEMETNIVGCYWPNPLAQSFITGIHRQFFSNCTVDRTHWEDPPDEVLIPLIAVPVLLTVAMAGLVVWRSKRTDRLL

B1: N^ε1-[2-[2-[2-(19-carboxynonadecanoylamino)ethoxy]ethoxy]acetyl]-[Arg17,Pro21,Pro27]-h-amylin (peptide)
peptide: K([AEEA-C20 diacid])CNTATCATQRLANFLRHSSPNFGAIPSSTNVGSNTY-NH2
modifications: disulfide 2-7; N-terminus assumed
SMILES: CC[C@H](C)[C@H](NC(=O)[C@H](C)NC(=O)CNC(=O)[C@H](Cc1ccccc1)NC(=O)[C@H](CC(N)=O)NC(=O)[C@@H]1CCCN1C(=O)[C@H](CO)NC(=O)[C@H](CO)NC(=O)[C@H](Cc1c[nH]cn1)NC(=O)[C@H](CCCNC(=N)N)NC(=O)[C@H](CC(C)C)NC(=O)[C@H](Cc1ccccc1)NC(=O)[C@H](CC(N)=O)NC(=O)[C@H](C)NC(=O)[C@H](CC(C)C)NC(=O)[C@H](CCCNC(=N)N)NC(=O)[C@H](CCC(N)=O)NC(=O)[C@@H](NC(=O)[C@H](C)NC(=O)[C@@H]1CSSC[C@H](NC(=O)[C@@H](N)CCCCNC(=O)COCCOCCNC(=O)CCCCCCCCCCCCCCCCCCC(=O)O)C(=O)N[C@@H](CC(N)=O)C(=O)N[C@@H]([C@@H](C)O)C(=O)N[C@@H](C)C(=O)N[C@@H]([C@@H](C)O)C(=O)N1)[C@@H](C)O)C(=O)N1CCC[C@H]1C(=O)N[C@@H](CO)C(=O)N[C@@H](CO)C(=O)N[C@H](C(=O)N[C@@H](CC(N)=O)C(=O)N[C@H](C(=O)NCC(=O)N[C@@H](CO)C(=O)N[C@@H](CC(N)=O)C(=O)N[C@H](C(=O)N[C@@H](Cc1ccc(O)cc1)C(N)=O)[C@@H](C)O)C(C)C)[C@@H](C)O
notes: modifications are with respect to human amylin; also called compound 43
B2: N^ε1-[2-[2-[2-[[(4S)-4-carboxy-4-(19-carboxynonadecanoylamino)butanoyl]amino]ethoxy]ethoxy]acetyl]-[Arg17,Pro21,Pro27]-h-amylin (peptide)
peptide: K([AEEA-γGlu-C20 diacid])CNTATCATQRLANFLRHSSPNFGAIPSSTNVGSNTY-NH2
modifications: disulfide 2-7; N-terminus assumed
SMILES: CC[C@H](C)[C@H](NC(=O)[C@H](C)NC(=O)CNC(=O)[C@H](Cc1ccccc1)NC(=O)[C@H](CC(N)=O)NC(=O)[C@@H]1CCCN1C(=O)[C@H](CO)NC(=O)[C@H](CO)NC(=O)[C@H](Cc1c[nH]cn1)NC(=O)[C@H](CCCNC(=N)N)NC(=O)[C@H](CC(C)C)NC(=O)[C@H](Cc1ccccc1)NC(=O)[C@H](CC(N)=O)NC(=O)[C@H](C)NC(=O)[C@H](CC(C)C)NC(=O)[C@H](CCCNC(=N)N)NC(=O)[C@H](CCC(N)=O)NC(=O)[C@@H](NC(=O)[C@H](C)NC(=O)[C@@H]1CSSC[C@H](NC(=O)[C@@H](N)CCCCNC(=O)COCCOCCNC(=O)CC[C@H](NC(=O)CCCCCCCCCCCCCCCCCCC(=O)O)C(=O)O)C(=O)N[C@@H](CC(N)=O)C(=O)N[C@@H]([C@@H](C)O)C(=O)N[C@@H](C)C(=O)N[C@@H]([C@@H](C)O)C(=O)N1)[C@@H](C)O)C(=O)N1CCC[C@H]1C(=O)N[C@@H](CO)C(=O)N[C@@H](CO)C(=O)N[C@H](C(=O)N[C@@H](CC(N)=O)C(=O)N[C@H](C(=O)NCC(=O)N[C@@H](CO)C(=O)N[C@@H](CC(N)=O)C(=O)N[C@H](C(=O)N[C@@H](Cc1ccc(O)cc1)C(N)=O)[C@@H](C)O)C(C)C)[C@@H](C)O
notes: modifications are with respect to human amylin; also called compound 41
B3: N^ε-[(4S)-4-carboxy-4-(19-carboxynonadecanoylamino)butanoyl]Lys[Arg1,Arg17,Pro21,Pro27,His35]-h-amylin (peptide)
peptide: K([γGlu-C20 diacid])RCNTATCATQRLANFLRHSSPNFGAIPSSTNVGSHTY-NH2
modifications: disulfide 3-8; N-terminus assumed
SMILES: CC[C@H](C)[C@H](NC(=O)[C@H](C)NC(=O)CNC(=O)[C@H](Cc1ccccc1)NC(=O)[C@H](CC(N)=O)NC(=O)[C@@H]1CCCN1C(=O)[C@H](CO)NC(=O)[C@H](CO)NC(=O)[C@H](Cc1c[nH]cn1)NC(=O)[C@H](CCCNC(=N)N)NC(=O)[C@H](CC(C)C)NC(=O)[C@H](Cc1ccccc1)NC(=O)[C@H](CC(N)=O)NC(=O)[C@H](C)NC(=O)[C@H](CC(C)C)NC(=O)[C@H](CCCNC(=N)N)NC(=O)[C@H](CCC(N)=O)NC(=O)[C@@H](NC(=O)[C@H](C)NC(=O)[C@@H]1CSSC[C@H](NC(=O)[C@H](CCCNC(=N)N)NC(=O)[C@@H](N)CCCCNC(=O)CC[C@H](NC(=O)CCCCCCCCCCCCCCCCCCC(=O)O)C(=O)O)C(=O)N[C@@H](CC(N)=O)C(=O)N[C@@H]([C@@H](C)O)C(=O)N[C@@H](C)C(=O)N[C@@H]([C@@H](C)O)C(=O)N1)[C@@H](C)O)C(=O)N1CCC[C@H]1C(=O)N[C@@H](CO)C(=O)N[C@@H](CO)C(=O)N[C@H](C(=O)N[C@@H](CC(N)=O)C(=O)N[C@H](C(=O)NCC(=O)N[C@@H](CO)C(=O)N[C@@H](Cc1c[nH]cn1)C(=O)N[C@H](C(=O)N[C@@H](Cc1ccc(O)cc1)C(N)=O)[C@@H](C)O)C(C)C)[C@@H](C)O
notes: modifications are with respect to human amylin; also called compound 44
B4: N^-1-[(4S)-4-carboxy-4-(19-carboxynonadecanoylamino)butanoyl]-Gly[Arg1,Arg17,Pro21,Pro27,His35]-h-amylin (peptide)
peptide: {C20 diacid-γGlu}-GRCNTATCATQRLANFLRHSSPNFGAIPSSTNVGSHTY-NH2
modifications: disulfide 3-8
SMILES: CC[C@H](C)[C@H](NC(=O)[C@H](C)NC(=O)CNC(=O)[C@H](Cc1ccccc1)NC(=O)[C@H](CC(N)=O)NC(=O)[C@@H]1CCCN1C(=O)[C@H](CO)NC(=O)[C@H](CO)NC(=O)[C@H](Cc1c[nH]cn1)NC(=O)[C@H](CCCNC(=N)N)NC(=O)[C@H](CC(C)C)NC(=O)[C@H](Cc1ccccc1)NC(=O)[C@H](CC(N)=O)NC(=O)[C@H](C)NC(=O)[C@H](CC(C)C)NC(=O)[C@H](CCCNC(=N)N)NC(=O)[C@H](CCC(N)=O)NC(=O)[C@@H](NC(=O)[C@H](C)NC(=O)[C@@H]1CSSC[C@H](NC(=O)[C@H](CCCNC(=N)N)NC(=O)CNC(=O)CC[C@H](NC(=O)CCCCCCCCCCCCCCCCCCC(=O)O)C(=O)O)C(=O)N[C@@H](CC(N)=O)C(=O)N[C@@H]([C@@H](C)O)C(=O)N[C@@H](C)C(=O)N[C@@H]([C@@H](C)O)C(=O)N1)[C@@H](C)O)C(=O)N1CCC[C@H]1C(=O)N[C@@H](CO)C(=O)N[C@@H](CO)C(=O)N[C@H](C(=O)N[C@@H](CC(N)=O)C(=O)N[C@H](C(=O)NCC(=O)N[C@@H](CO)C(=O)N[C@@H](Cc1c[nH]cn1)C(=O)N[C@H](C(=O)N[C@@H](Cc1ccc(O)cc1)C(N)=O)[C@@H](C)O)C(C)C)[C@@H](C)O
notes: modifications are with respect to human amylin; also called compound 47
B5: N^-1-[(4S)-4-carboxy-4-(19-carboxynonadecanoylamino)butanoyl]-Gly[Arg1,Arg17,Pro21,Pro27]-h-amylin (peptide)
peptide: {C20 diacid-γGlu}-GRCNTATCATQRLANFLRHSSPNFGAIPSSTNVGSNTY-NH2
modifications: disulfide 3-8
SMILES: CC[C@H](C)[C@H](NC(=O)[C@H](C)NC(=O)CNC(=O)[C@H](Cc1ccccc1)NC(=O)[C@H](CC(N)=O)NC(=O)[C@@H]1CCCN1C(=O)[C@H](CO)NC(=O)[C@H](CO)NC(=O)[C@H](Cc1c[nH]cn1)NC(=O)[C@H](CCCNC(=N)N)NC(=O)[C@H](CC(C)C)NC(=O)[C@H](Cc1ccccc1)NC(=O)[C@H](CC(N)=O)NC(=O)[C@H](C)NC(=O)[C@H](CC(C)C)NC(=O)[C@H](CCCNC(=N)N)NC(=O)[C@H](CCC(N)=O)NC(=O)[C@@H](NC(=O)[C@H](C)NC(=O)[C@@H]1CSSC[C@H](NC(=O)[C@H](CCCNC(=N)N)NC(=O)CNC(=O)CC[C@H](NC(=O)CCCCCCCCCCCCCCCCCCC(=O)O)C(=O)O)C(=O)N[C@@H](CC(N)=O)C(=O)N[C@@H]([C@@H](C)O)C(=O)N[C@@H](C)C(=O)N[C@@H]([C@@H](C)O)C(=O)N1)[C@@H](C)O)C(=O)N1CCC[C@H]1C(=O)N[C@@H](CO)C(=O)N[C@@H](CO)C(=O)N[C@H](C(=O)N[C@@H](CC(N)=O)C(=O)N[C@H](C(=O)NCC(=O)N[C@@H](CO)C(=O)N[C@@H](CC(N)=O)C(=O)N[C@H](C(=O)N[C@@H](Cc1ccc(O)cc1)C(N)=O)[C@@H](C)O)C(C)C)[C@@H](C)O
notes: modifications are with respect to human amylin; also called compound 46

Experiments:
[1] = molecular target: T1, human calcitonin receptor; assay: IC50 at hCTR divided by IC50 at hAmylin-R (reference)
Outline: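 Membranes (35 ng/μL final) + SPA beads, 50 mM Hepes pH 7.4 buffer with 1 mM CaCl2, 5 mM MgCl₂, 0.1% OA, 0.02% Tween20; 120 min, 25° C, shaking; centrifuged, counted; IC₅₀ by one-site binding competition.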

rat calcitonin receptor [2] = molecular target: T2, rat calcitonin receptor; assay: IC50 at rCTR divided by IC50 at rAmylin-R (reference)
rat calcitonin receptor [3] = molecular target: T2, rat calcitonin receptor; assay: SPA competition vs 125I-calcitonin, membranes with rat CTR (Assay VIII)
[4] = molecular target: T3, rat amylin receptor (rat calcitonin …); assay: SPA competition vs 125I-rat amylin, membranes with rat CTR + rat RAMP3 (Assay VI)

| Binder | Ratio hCT/hAmylin binding [1] | Ratio rCT/rAmylin binding (rat calcitonin receptor [2]) | IC50 (rat calcitonin receptor [3]) [nM] | IC50 [4] [nM] |
| --- | --- | --- | --- | --- |
| B1 | 34.7 | 69.1 | 7.6 | 0.11 |
| B2 | 49.9 | 54 | 74.1 | 1.37 |
| B3 | 17.7 | 53.3 | 19.6 | 0.369 |
| B4 | 44.9 | 84.3 | 17.1 | 0.203 |
| B5 | 48.9 | 142 | 46.8 | 0.33 |
